From the RNAGym collection of RNA variant scans (doi:10.1021/acssynbio.7b00057)

B1: Pistol ribozyme (parent)
chain: GGGUCGUUGUUCCAUAAUCGCGUGGAUAUGGCACGCAAGUUUCUACCGGGCACCGUAAAUGUCCGACUGGAGCCGUUCGGGCGGCUAUAAACAGACCUCAGGCCCGAAGCGUGGCGGCACCUGCCGCCGGUGGUAAAAAAGAUCGGAAGAGCACACGUCU

Variants of: B1
Experiment: aptazyme ON/OFF ratio, guanine; higher = stronger switching; co-transcriptional cleavage with and without guanine

Variant	aptazyme ON/OFF ratio
G9C U10G U11G C12U C13U	1.05
G9C U10G U11G C12U C13A	1.09
G9U U10A U11C C12A C13A	1.06
G9U U10A U11C C12A C13G	0.991
G9U U10A U11C C12A C13U	1.41
G9C U10C U11A C12A C13U	1.11
G9C U10C U11A C12A C13G	1.07
G9C U10C U11A C12A C13A	1.06
G9C U11A C12A	1.34
G9C U11A C12G	1.47
G9C U11A C12U	1.53
G9C U10C C12G C13U	1.09
G9C U10C C12G C13A	1.06
G9C U10C C12G C13G	1.09
G9C U11A C12U C13G	1.17
G9C U11A C12U C13A	1.27
G9C U11A C12U C13U	1.34
G9C U10A U11A C12U C13U	1.42
G9C U10A U11A C12U C13G	1.14
G9C U10A U11A C12U C13A	1.34
G9C U10A C12G C13U	1.22
G9C U10A C12G C13G	1.18
G9C U10A C12G C13A	1.31
G9C U10G U11G C12G C13U	1.1

Variant	aptazyme ON/OFF ratio
G9C U10G U11G C12G C13A	1.1
G9C U10G U11G C12G C13G	1.13
G9U U10A U11C C13A	1.53
G9U U10A U11C C13G	1.04
G9U U10A U11C C13U	1.17
G9C U10G U11G C13A	1.09
G9C U10G U11G C13G	1.12
G9C U10G U11G C13U	1.13
G9C U10A C12A	1.81
G9C U10A C12G	1.22
G9C U10A C12U	1.6
G9C U11C C12U C13G	1.01
G9C U11C C12U C13U	1.14
G9C U11C C12U C13A	1.09
G9C U11G C13U	1.31
G9C U11G C13A	1.23
G9C U11G C13G	1.05
G9C U10C U11C C13G	1.03
G9C U10C U11C C13U	1.02
G9C U10C U11C C13A	1.02
G9C U10G C12G	1.19
G9C U10G C12A	1.3
G9C U10G C12U	1.47
G9C U10G C12U C13A	1.15

Variant	aptazyme ON/OFF ratio
G9C U10G C12U C13G	1.15
G9C U10G C12U C13U	1.22
G9C U10A U11G C12G C13G	1.13
G9C U10A U11G C12G C13U	1.16
G9C U10A U11G C12G C13A	1.19
G9C C12G C13G	1.14
G9C C12G C13A	1.28
G9C C12G C13U	1.26
G9U U10A	3.18
G9U U10A C12G	1.41
G9U U10A C12U	1.41
G9U U10A C12A	1.21
G9C U10C C12A C13A	1.03
G9C U10C C12A C13U	1.05
G9C U10C C12A C13G	1.06
G9U C12U C13G	1.3
G9U C12U C13U	1.34
G9U C12U C13A	1.23
G9U C12A C13U	1.1
G9U C12A C13A	1.63
G9U C12A C13G	1.45
G9C U10G U11C C12A C13A	1.22
G9C U10G U11C C12A C13G	1.15
G9C U10G U11C C12A C13U	1.25

Variant	aptazyme ON/OFF ratio
G9U U10A U11A C12U	1.64
G9U U10A U11A C12G	1.47
G9U U10A U11A C12A	1.54
G9C U10G U11G C12A C13U	1.11
G9C U10G U11G C12A C13A	1.11
G9C U10G U11G C12A C13G	1.12
G9C U10A U11A C12G C13G	1.27
G9C U10A U11A C12G C13U	1.38
G9C U10A U11A C12G C13A	1.31
G9C U10C U11G C12U C13G	1.05
G9C U10C U11G C12U C13A	1.04
G9C U10C U11G C12U C13U	1.06
G9C U10G U11G C12U	1.13
G9C U10G U11G C12A	1.18
G9C U10G U11G C12G	1.16
G9C U11A C13A	1.19
G9C U11A C13G	1.04
G9C U11A C13U	1.3
G9C U10A C12A C13G	1.16
G9C U10A C12A C13U	1.23
G9C U10A C12A C13A	1.21
G9C U10A U11A C13A	1.22
G9C U10A U11A C13G	1.05
G9C U10A U11A C13U	1.32

Variant	aptazyme ON/OFF ratio
G9C U10G C12G C13G	1.14
G9C U10G C12G C13U	1.05
G9C U10G C12G C13A	1.22
G9C U10G U11A C12U C13G	1.09
G9C U10G U11A C12U C13U	1.08
G9C U10G U11A C12U C13A	1.09
G9C U10G U11C C12G	1.17
G9C U10G U11C C12U	1.08
G9C U10G U11C C12A	1.37
G9A U11G C12U C13U	1.21
G9A U11G C12U C13A	1.35
G9A U11G C12U C13G	1.42
G9C U10A U11C C12G C13U	1.24
G9C U10A U11C C12G C13A	1.32
G9C U10A U11C C12G C13G	1.44
G9C U10A U11G C12A	1.06
G9C U10A U11G C12U	1.37
G9C U10A U11G C12G	1.23
G9U U10A U11A C12G C13A	0.999
G9U U10A U11A C12G C13G	1.51
G9U U10A U11A C12G C13U	1.64
G9C U10C C12U C13U	1.07
G9C U10C C12U C13A	1.07
G9C U10C C12U C13G	1.06

Variant	aptazyme ON/OFF ratio
G9U U10A U11G C12A	1.79
G9C C13G	1.03
G9C C13U	1.07
G9C C13A	1.02
G9C U10A U11A C12U	1.66
G9C U10A U11A C12A	1.52
G9C U10A U11A C12G	1.5
G9U U10A U11C C12A	1.72
G9U U10A U11C C12G	1.57
G9U U10A U11C C12U	1.79
G9U	4.29
G9C	1.06
G9C U10C U11G C12A C13A	1.04
G9C U10C U11G C12A C13G	1.03
G9C U10C U11G C12A C13U	1.02
G9C U11G C12A C13U	1.13
G9C U11G C12A C13G	1.03
G9C U11G C12A C13A	1.14
G9C C12A C13A	1.29
G9C C12A C13G	1.1
G9C C12A C13U	1.35
G9C U10G U11A C12G C13G	1.24
G9C U10G U11A C12G C13U	1.07
G9C U10G U11A C12G C13A	1.11

Variant	aptazyme ON/OFF ratio
G9C U10G C12A C13A	1.15
G9C U10G C12A C13U	1.32
G9C U10G C12A C13G	1.11
G9C U10C U11C C12G C13A	1.08
G9C U10C U11C C12G C13U	1.04
G9C U10C U11C C12G C13G	1.05
G9C U10C U11C C12A C13G	1.01
G9C U10C U11C C12A C13U	0.997
G9C U10C U11C C12A C13A	1.03
G9C U11A C12A C13U	1.3
G9C U11A C12A C13G	1.12
G9C U11A C12A C13A	1.26
G9A U11G C12U	2.06
G9A U11G C12G	1.3
G9C U11G C12G C13A	1.24
G9C U11G C12G C13U	1.05
G9C U11G C12G C13G	1.07
G9C U11G C12G	1.27
G9C U11G C12A	1.11
G9C U11G C12U	1.84
G9C U10A U11G C12A C13G	1.17
G9C U10A U11G C12A C13U	1.17
G9C U10A U11G C12A C13A	1.06
